Each block holds one binder with its values, some of them ahead of it.
Assays:
[1] = target: T1, Human CAP1 (cyclase associated protein 1), 6xHis-tagged, purified (human, UniProt Q01518 1-475, biotinylated where it was immobilised for BLI (site not told)); test: BLI; biotinylated PCSK9 or biotinylated CHRD immobilised (0.2 μg/ml), CAP1 in solution, pH 7.5, association and dissociation 600 s; settings: both partners purified
T1 construct: human adenylyl cyclase-associated protein 1 (CAP1), cDNA cloned into pCMV; also called adenylyl cyclase-associated protein 1; biotinylated CAP1; source: FreeStyle293 FS cells, transfected, purified (NiNTA, size-exclusion chromatography)

[2] = target: T2, Human PCSK9 (full length), 6xHis-tagged, purified (human, UniProt Q8NBP7, biotinylated where it was immobilised for BLI (site not told)); test: SEC + other: SAXS; size exclusion chromatography followed by small angle X-ray scattering of PCSK9 alone or in complex with P1.40, in solution; settings: both partners purified
T2 construct: human PCSK9, full length cDNA in pIRES2-EGFP; also called full-length PCSK9; proprotein convertase substilisin kexin 9; source: FreeStyle293 FS cells, transfected, purified (NiNTA, size-exclusion chromatography)

[3] = target: T2, Human PCSK9 (full length), …; test: BLI; biotinylated P1.40 immobilised (0.25 μg/μL), PCSK9 or CHRD in solution, pH 7.5, 1:1 binding model; association 3600 s (PCSK9) or 1800 s (CHRD), dissociation 3600 s; settings: both partners purified
[4] = target: T3, CHRD (aa 449–693) of human PCSK9, 6xHis-tagged (human, UniProt Q8NBP7, biotinylated where it was immobilised for BLI (site not told)); test: as above; settings: both partners purified
T3 construct: human PCSK9, C-terminal Cys/His-rich domain, aa 449-693 as printed (modules M1 453-529, M2 530-603, M3 604-692); also called C-terminal Cys/His-rich domain; CHRD alone; source: FreeStyle293 FS cells, transfected, purified (NiNTA, size-exclusion chromatography)

CHRD D480A mutant = target: T4, CHRD D480A mutant (Homo sapiens (Human)., UniProt Q8NBP7, D480A); test: flow cytometry on cells; P1.40 or its mutants expressed on yeast cells (HA-tagged), 6xHis-tagged CHRD or its mutants in solution; cell binding assays and FACS sorting for deep mutational scanning; settings: one partner purified
T4 construct: human PCSK9 CHRD, aa 449-693 as printed for the parent construct; source: HEK293 cells

CHRD F456A mutant = target: T5, CHRD F456A mutant (Homo sapiens (Human)., UniProt Q8NBP7, F456A); test: as above; settings: one partner purified
T5 construct: human PCSK9 CHRD, aa 449-693 as printed for the parent construct; source: HEK293 cells

CHRD R476A mutant = target: T6, CHRD R476A mutant (Homo sapiens (Human)., UniProt Q8NBP7, R476A); test: as above; settings: one partner purified
T6 construct: human PCSK9 CHRD, aa 449-693 as printed for the parent construct; source: HEK293 cells

T1 sequence (Q01518 whole entry): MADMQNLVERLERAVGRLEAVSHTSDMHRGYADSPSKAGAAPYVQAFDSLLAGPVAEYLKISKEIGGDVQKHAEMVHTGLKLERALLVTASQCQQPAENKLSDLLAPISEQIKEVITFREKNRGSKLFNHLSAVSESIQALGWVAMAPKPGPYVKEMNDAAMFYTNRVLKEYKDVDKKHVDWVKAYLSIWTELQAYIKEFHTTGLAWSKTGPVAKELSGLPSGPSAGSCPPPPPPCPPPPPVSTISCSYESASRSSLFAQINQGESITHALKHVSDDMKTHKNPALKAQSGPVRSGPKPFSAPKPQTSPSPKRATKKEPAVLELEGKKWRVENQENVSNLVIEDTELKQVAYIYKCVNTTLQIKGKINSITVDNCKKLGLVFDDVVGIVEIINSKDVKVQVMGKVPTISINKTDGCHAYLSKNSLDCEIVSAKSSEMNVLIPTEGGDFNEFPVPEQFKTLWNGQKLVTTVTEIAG

Kd [1]: 1260 nM
koff [1]: 0.0007 s⁻¹
kon [1]: 560 M⁻¹ s⁻¹
B1: CHRD (aa 449–693) of human PCSK9, 6xHis-tagged (domain or fragment, UniProt Q8NBP7 449-692, looked up)
chain: HGAGWQLFCRTVWSAHSGPTRMATAVARCAPDEELLSCSSFSRSGKRRGERMEAQGGKLVCRAHNAFGGEGVYAIARCCLLPQANCSVHTAPPAEASMGTRVHCHQQGHVLTGCSSHWEVEDLGTHKPPVLRPRGQPNQCVGHREASIHASCCHAPGLECKVKEHGIPAPQEQVTVACEEGWTLTGCSALPGTSHVLGAYAVDNTCVVRSRDVSTTGSTSEGAVTAVAICCRSRHLAQASQELQ
modifications: biotinylated where it was immobilised for BLI (site not told)
notes: human PCSK9, C-terminal Cys/His-rich domain, aa 449-693 as printed (modules M1 453-529, M2 530-603, M3 604-692); also called C-terminal Cys/His-rich domain; CHRD alone; source: FreeStyle293 FS cells, transfected, purified (NiNTA, size-exclusion chromatography)

stoichiometry N [2]: 1
Kd [3]: 5.6 nM
koff [3]: 9e-06 s⁻¹
kon [3]: 1600 M⁻¹ s⁻¹
Kd [4]: 0.0903 nM
koff [4]: 3.5e-05 s⁻¹
kon [4]: 380000 M⁻¹ s⁻¹
B2: P1.40, CHRD-specific single domain antibody (nanobody), purified from E. coli (VHH)
VHH: QVKLEESGGGLVQAGGSLRLSCSPSDRTFSAYAMGWFRQVPGREREFVATIRDSDASIYYTDSVKGRFTISRDNAKNTVYLQMNSLIPDDTAVYYCAARQYYSGRVYSTFREEYDYWGQGTQVTVSS
notes: TEV site ENLYFQ/G: a glycine may be left at the N-terminus after cleavage; also called nanobody P1.40; biotinylated P1.40; source: E. coli BL21 (DE3) pLysS, purified (HisTrap, TEV cleavage, size-exclusion chromatography); not shown: DsbC, N-terminal, cleaved; His6, N-terminal, cleaved

fold decrease of affinity against wild-type CHRD (CHRD D480A mutant): 142 fold
fold decrease of affinity against wild-type CHRD (CHRD F456A mutant): 12 fold
fold decrease of affinity against wild-type CHRD (CHRD R476A mutant): 17 fold
B3: P1.40 expressed on yeast cells (cell surface, HA-tagged) (VHH)
VHH: B2 VHH

Source: publication PMC9816786 (Molecular Metabolism, 2022)
